# Measurements: the supplement of paper PMC10567573
# B1: CFHR2 (parent)
# chain: FVENGHSESSGQTHLEGDTVQIIC
# Variants of: B1
# Assay: protein stability index of a GFP-peptide fusion (GPS, HEK-293T) (PSI 1-6); higher = more stable
# Conditions: c terminus: a fixed tail appended
# 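Note: lentivirally expressed fusions sorted by FACS into six bins by GFP to DsRed ratio, PSI derived from sequencing read proportions per bin multiplied by bin number.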
row,Variant,protein stability index
1,FVENGHSESSGQTHLECDTVQIIC [G17C],2.28
2,FVENGHSESSGQTHLEDDTVQIIC [G17D],3.46
3,FVENGHSESSGQTHLEADTVQIIC [G17A],2.3
4,FVENGHSESSGQTHLEEDTVQIIC [G17E],4.47
5,FVENGHSESSGQTHLEFDTVQIIC [G17F],1.8
6,FVENGHSESSGQTHEEGDTVQIIC [L15E],3.15
7,FVENGHSESSGQTHNEGDTVQIIC [L15N],3.49
8,FVENGHSESSGQTHMEGDTVQIIC [L15M],3.13
9,FVENGHSESSGQTHWEGDTVQIIC [L15W],1.53
10,FVENGHSESSGQTHPEGDTVQIIC [L15P],3.2
11,FVENGHSESSGQTHQEGDTVQIIC [L15Q],3.65
12,FVENGHSESSGQTHIEGDTVQIIC [L15I],2.69
13,FVENGHSESSGQTHDEGDTVQIIC [L15D],3.4
14,FVENGHSESSGQTHGEGDTVQIIC [L15G],2.9
15,FVENGHSESSGQTHHEGDTVQIIC [L15H],3
16,FVENGHSESSGQTHSEGDTVQIIC [L15S],3.22
17,FVENGHSESSGQTHKEGDTVQIIC [L15K],3.25
18,FVENGHSESSGQTHCEGDTVQIIC [L15C],2.78
19,FVENGHSESSGQTHREGDTVQIIC [L15R],2.87
20,FVENGHSESSGQTHYEGDTVQIIC [L15Y],2.76
21,FVENGHSESSGQTHAEGDTVQIIC [L15A],3.22
22,FVENGHSESSGQTHFEGDTVQIIC [L15F],2.2
23,FVENGHSESSGQTHTEGDTVQIIC [L15T],3.12
24,FVENGHSESSGQTHVEGDTVQIIC [L15V],2.99

row,Variant,protein stability index
1,FVENGHSESSLQTHLEGDTVQIIC [G11L],2.5
2,FVENGHSESSIQTHLEGDTVQIIC [G11I],1.81
3,FVENGHSESSKQTHLEGDTVQIIC [G11K],2.39
4,FVENGHSESSAQTHLEGDTVQIIC [G11A],2.56
5,FVENGHSESSNQTHLEGDTVQIIC [G11N],3.09
6,FVENGHSESSFQTHLEGDTVQIIC [G11F],1.98
7,FVENGHSESSHQTHLEGDTVQIIC [G11H],2.67
8,FVENGHSESSSQTHLEGDTVQIIC [G11S],2.48
9,FVENGHSESSRQTHLEGDTVQIIC [G11R],2.86
10,FVENGHSESSQQTHLEGDTVQIIC [G11Q],2.96
11,FVENGHSESSYQTHLEGDTVQIIC [G11Y],2.04
12,FVENGHSESSPQTHLEGDTVQIIC [G11P],3.22
13,FVENGHSESSWQTHLEGDTVQIIC [G11W],2.33
14,FVENGHSESSMQTHLEGDTVQIIC [G11M],2.03
15,FVENGHSESSTQTHLEGDTVQIIC [G11T],2.86
16,FVENGHSESSDQTHLEGDTVQIIC [G11D],3.4
17,FVENGHSESSEQTHLEGDTVQIIC [G11E],3.32
18,FVENGHSESSVQTHLEGDTVQIIC [G11V],2.67
19,FVENGHSESSCQTHLEGDTVQIIC [G11C],2.19
20,FVENGHSESSGQKHLEGDTVQIIC [T13K],2.48
21,FVENGHSESSGQRHLEGDTVQIIC [T13R],2.47
22,FVENGHSESSGQWHLEGDTVQIIC [T13W],1.85
23,FVENGHSESSGQVHLEGDTVQIIC [T13V],2.24
24,FVENGHSESSGQDHLEGDTVQIIC [T13D],3.43

row,Variant,protein stability index
1,FVENGHSESSGQIHLEGDTVQIIC [T13I],2.06
2,FVENGHSESSGQPHLEGDTVQIIC [T13P],2.87
3,FVENGHSESSGQAHLEGDTVQIIC [T13A],2.54
4,FVENGHSESSGQLHLEGDTVQIIC [T13L],2.29
5,FVENGHSESSGQEHLEGDTVQIIC [T13E],3.3
6,FVENGHSESSGQGHLEGDTVQIIC [T13G],3.03
7,FVENGHSESSGQCHLEGDTVQIIC [T13C],2.55
8,FVENGHSESSGQMHLEGDTVQIIC [T13M],2.19
9,FVENGHSESSGQYHLEGDTVQIIC [T13Y],2.19
10,FVENGHSESSGQHHLEGDTVQIIC [T13H],2.34
11,FVENGHSESSGQSHLEGDTVQIIC [T13S],2.95
12,FVENGHSESSGQNHLEGDTVQIIC [T13N],3.35
13,FVENGHSESSGQFHLEGDTVQIIC [T13F],1.88
14,FVENGHSESSGQQHLEGDTVQIIC [T13Q],3.18
15,FVENGHYESSGQTHLEGDTVQIIC [S7Y],1.64
16,FVENGHDESSGQTHLEGDTVQIIC [S7D],3.09
17,FVENGHTESSGQTHLEGDTVQIIC [S7T],3.24
18,FVENGHNESSGQTHLEGDTVQIIC [S7N],3.14
19,FVENGHLESSGQTHLEGDTVQIIC [S7L],3.1
20,FVENGHRESSGQTHLEGDTVQIIC [S7R],2.29
21,FVENGHHESSGQTHLEGDTVQIIC [S7H],2.75
22,FVENGHKESSGQTHLEGDTVQIIC [S7K],2.84
23,FVENGHMESSGQTHLEGDTVQIIC [S7M],2.19
24,FVENGHWESSGQTHLEGDTVQIIC [S7W],4.33

row,Variant,protein stability index
1,FVENGHQESSGQTHLEGDTVQIIC [S7Q],3.04
2,FVENGHGESSGQTHLEGDTVQIIC [S7G],2.63
3,FVENGHIESSGQTHLEGDTVQIIC [S7I],2.42
4,FVENGHFESSGQTHLEGDTVQIIC [S7F],1.43
5,FVENGHEESSGQTHLEGDTVQIIC [S7E],3.87
6,FVENGHVESSGQTHLEGDTVQIIC [S7V],2.39
7,FVENGHPESSGQTHLEGDTVQIIC [S7P],3.12
8,FVENGHSEISGQTHLEGDTVQIIC [S9I],2.2
9,FVENGHSEGSGQTHLEGDTVQIIC [S9G],2.7
10,FVENGHSECSGQTHLEGDTVQIIC [S9C],2.02
11,FVENGHSEASGQTHLEGDTVQIIC [S9A],2.5
12,FVENGHSEYSGQTHLEGDTVQIIC [S9Y],1.66
13,FVENGHSEHSGQTHLEGDTVQIIC [S9H],2.77
14,FVENGHSEQSGQTHLEGDTVQIIC [S9Q],3.14
15,FVENGHSEVSGQTHLEGDTVQIIC [S9V],2.15
16,FVENGHSEKSGQTHLEGDTVQIIC [S9K],2.76
17,FVENGHSEESGQTHLEGDTVQIIC [S9E],3.22
18,FVENGHSERSGQTHLEGDTVQIIC [S9R],2.14
19,FVENGHSEFSGQTHLEGDTVQIIC [S9F],2.19
20,FVENGHSELSGQTHLEGDTVQIIC [S9L],1.99
21,FVENGHSEDSGQTHLEGDTVQIIC [S9D],3.23
22,FVENGHSENSGQTHLEGDTVQIIC [S9N],2.76
